According to the supplement of paper PMC10567573:

B1: C9orf9 (parent)
chain: LTKASLKPRGCSKPPWRPPGGKL

Variants of: B1
Assay: protein stability index of a GFP-peptide fusion (GPS, HEK-293T) (PSI 1-6); higher = more stable
Conditions: c terminus: native
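Note: lentivirally expressed fusions sorted by FACS into six bins by GFP to DsRed ratio, PSI derived from sequencing read proportions per bin multiplied by bin number.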

Protein stability index of substitutions, site by site:
K13: I 2.1 | G 2.78 | C 2.9 | S 2.62 | Q 2.3 | R 1.49 | M 2.87 | D 3.65 | E 3.46
K7: E 1.51 | I 1.56 | L 1.69 | C 1.68 | S 1.53 | H 2.31 | N 2.32 | A 2.72 | G 1.51 | F 1.78 | T 2.25 | M 2.66 | V 2.25
L23: N 1.92 | F 1.24 | C 1.68 | R 3.08 | Y 2.13 | H 2.48 | W 1.03 | Q 2.91 | P 3.08 | M 2.1
P8: Y 2.15 | M 2.53 | Q 4.76 | W 4.77 | A 3.56 | L 2.77 | F 2.51 | H 1.65
G21: V 3.39 | A 1.86 | Y 2.35 | K 4.05 | R 1.75 | P 2.03 | W 2.02
P18: Q 2.26 | K 2.85 | I 2.18 | N 2.93 | Y 2.86 | L 1.32 | W 2.9 | R 2.46 | M 3.68 | H 3.78
R9: S 1.95 | I 1.85 | H 1.35 | G 1.37 | P 1.34 | L 2.96 | Q 2.68 | C 3.36 | V 2.91 | E 1.9 | T 1.45 | W 2.31 | N 2.07 | F 1.15 | A 1.7 | M 2.33 | Y 3.3
L6: P 1.9 | H 1.89 | F 2.35 | R 2.17 | T 1.87 | Q 4.53 | I 1.37 | Y 2.04 | S 2.47
W16: I 1.87 | Y 2.25 | F 2.03 | E 2.19 | V 3.43 | G 2.29
P14: V 2.36 | S 1.38 | A 1.54 | W 1.94 | L 2.24
K22: N 3.08 | M 2.73 | Q 3.53 | C 3.7 | S 2.67 | Y 3.71 | G 2.1 | V 4.26 | F 2.03
S12: V 2.52 | L 1.66 | P 1.48 | R 1.34 | N 2.05 | W 3.5 | M 5.53 | A 2.42 | I 2.3 | C 1.49 | T 3.8 | G 1.99 | H 1.53 | F 1.3 | E 2.02
G10: H 2.29 | K 2.43 | Q 1.88 | S 2.7 | A 2.74 | R 3.37 | T 2.5 | V 2.19 | N 2.06 | Y 2.25 | D 2.36 | M 2.19 | F 1.91 | L 2.96 | C 1.97 | P 2.24 | E 2.18 | I 2.47 | W 2.02
P19: C 2.91 | I 1.24 | G 3.44 | N 4.1 | E 4.05 | H 2.23 | F 1.69 | D 4.43 | L 3.21 | R 2.6 | M 3.15 | S 3.87 | Y 1.22 | V 1.78 | T 3.72
G20: S 2.76 | I 2.42 | V 3.83 | D 4.64 | K 3.36 | H 3.77 | M 2.13 | F 3.03 | N 2.27 | Y 2.56 | R 2.18 | C 2.91
C11: M 1.71 | D 1.76 | I 2.1 | P 1.65 | G 2.13 | Y 1.27 | L 2.39 | H 3.08 | W 2.1 | S 2 | N 1.58 | Q 1.54 | V 2.1
P15: T 3.08 | Y 2.73 | L 3.21 | H 2.18 | D 3.75 | I 2.36 | W 1.16 | Q 2.77 | G 2.02 | E 3.93 | V 2.02 | R 2.34 | M 1.78 | N 1.77
R17: S 4.71 | K 3.26 | P 2.71 | V 3.35 | L 3.69 | Q 4.16 | A 3.53 | F 3.37 | D 3.87 | W 3.47 | N 4.2 | M 3.49
